Reference: article doi:10.1101/2020.04.26.062372

How the values were obtained:
[1] = target: GLP-1R-SmBiT (glucagon-like peptide-1 receptor tagged at the C-terminus with SmBiT) (UniProt P43220); assay: split reporter
[2] = target: GIPR-SmBiT (glucose-dependent insulinotropic polypeptide receptor tagged at the C-terminus with SmBiT) (UniProt P48546); assay: split reporter
Chain of UniProt P48546 (P48546 22-466): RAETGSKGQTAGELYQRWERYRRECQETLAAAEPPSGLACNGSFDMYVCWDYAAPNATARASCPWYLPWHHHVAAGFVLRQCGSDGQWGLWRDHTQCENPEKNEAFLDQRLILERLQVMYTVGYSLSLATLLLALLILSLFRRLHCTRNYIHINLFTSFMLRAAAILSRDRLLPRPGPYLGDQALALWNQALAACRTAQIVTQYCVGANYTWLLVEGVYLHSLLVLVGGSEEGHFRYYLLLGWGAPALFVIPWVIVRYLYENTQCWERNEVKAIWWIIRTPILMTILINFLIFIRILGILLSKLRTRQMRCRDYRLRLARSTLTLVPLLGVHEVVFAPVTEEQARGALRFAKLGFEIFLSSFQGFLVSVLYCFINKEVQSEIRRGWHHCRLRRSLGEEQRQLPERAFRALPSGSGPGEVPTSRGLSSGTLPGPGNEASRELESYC

Chain of UniProt P43220 (P43220 24-463): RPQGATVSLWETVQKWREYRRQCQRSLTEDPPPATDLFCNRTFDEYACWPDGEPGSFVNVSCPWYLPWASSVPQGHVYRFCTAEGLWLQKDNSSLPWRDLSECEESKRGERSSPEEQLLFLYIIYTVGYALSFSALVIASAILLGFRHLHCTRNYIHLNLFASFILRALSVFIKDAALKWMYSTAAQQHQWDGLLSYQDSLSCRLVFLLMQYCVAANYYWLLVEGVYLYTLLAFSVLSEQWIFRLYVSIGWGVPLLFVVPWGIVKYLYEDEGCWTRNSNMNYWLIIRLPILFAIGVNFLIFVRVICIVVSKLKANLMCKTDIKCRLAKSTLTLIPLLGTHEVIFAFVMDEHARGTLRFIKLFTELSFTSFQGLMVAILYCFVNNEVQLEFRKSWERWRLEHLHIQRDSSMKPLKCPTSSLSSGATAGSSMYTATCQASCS

Q: For LgBiT-mini-Gs, which t1/2 of ligand-induced recruitment [1] is on record?
A: 1.5 min

Q: And the t1/2 of ligand-induced recruitment [2]?
A: 7.1 min
